Source: the nanobody polyreactivity screen of Harvey et al. (2022)

Test: yeast display, Sf9 membrane polyspecificity reagent, FACS + sequencing; frameworks hold sequencing errors
Summary of the method: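 After 36–48 hours of galactose induction, yeast (Saccharomyces cerevisiae BJ5465) displaying a synthetic nanobody library were stained at 4 °C for 1 hour with 10% biotinylated, detergent-solubilized Sf9 membrane reagent. Streptavidin microbeads enriched the stained cells before FACS sorting into low and high (top ~1%) gates on anti-HA and streptavidin fluorescence. Each clone's polyreactivity label reflects its gate of origin.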

Row | Sequence | polyreactivity (PSR sort gate)
1 | QVQLEESGGGLVQAGGSLRLSCAASGLIFITYAMGWYRQAPGKERELVATITLRGGSTYYADSVKGRFTISRDNAKNTVYLQMNSLKPEDTAVYYCAADVGYWGRSRGYPSDDYDYWGQGTQVTVSS | low polyreactivity
2 | QVQLEESGGGLVQAGGSLRLSCAASGLIYSSYAMGWYRQAPGKERELVAAIRSGGNTNYADSVKGRFTISRDNAKNTVYLQMNSLKPEDTAVYYCADGTYSRPYYRTFDHWGQGTQVTVSS | low polyreactivity
3 | QVQLEESGGGLVQAGGSLRLSCAASGNTFYKYTMGWYRQAPGKERELLAAITWSGGSTYYADSVKGRFTISRDNAKNTVYLQMNSLKPEDTAVYYCNADDYQYKTWYHLDYWGQGTQVTVSS | low polyreactivity
4 | QVQLEESGGGLVQAGGSLRLSCAASGNTSPVNAMGWYRQAPGKERELVAAITQSGGSTYYADSLKGRFTISRDNAKITVYFQMNSLKPQDTAVYYCAADVLGPQYWWYDYWGQGTQVTVSS | low polyreactivity
5 | QVQLEESGGGLVQAGGSLRLSCAASGRIFGGNAMGWYRQAPGKERELVAAINSSGGRTYYADSLKGRFTISRDNAKYTVYLQMNSLKTEDTAVYYCSARVVGNWYDYWGQGTQVTVSS | high polyreactivity
6 | QVQLEESGGGLVQAGGSLRLSCAASGRIFGRNARGWYRQAPVKERELVAAISWRGGNTYYADSVKGRFTISRDNAKNTVYLQMKSLKAEDTAFYYCNTVQSRNEMGYWGQGTQVTVSS | high polyreactivity
7 | QVQLEESGGGLVQAGGSLRLSCAASGRIFGSYAMGWYRQAAGNERELVAAITRSGGSTYYADSVKGRFTISRDNAKNTVYLQMNSLTPEDTAVYYCAAYFRFSGSAKFGYWGQGTQVTVSS | high polyreactivity
8 | QVQLEESGGGLVQAGGSLRLSCAASGRIFGVNAMGWYRQAPGKERELVAAIRYSGGSTYYADSVKGRFTISRDNAKNTVYLQMNSLKPEDTAVYYCARDVWNYWDGVFQYYSYDFDYWGQGTQVTVSS | low polyreactivity
9 | QVQLEESGGGLVQAGGSLRLSCAASGRIFRANAMGRYRQAPGKERELVADITRRGASTYYADSVKGRFTISRDNAKNTVYLQMNSLKPEDTAVYYCNARGWPSSLLYLRDRYQMDYWGQGTQVTVSS | low polyreactivity
10 | QVQLEESGGGLVQAGGSLRLSCAASGRIFRANSMGWYRQEPGKERELVAAISFSGGGTYYADSVKGRFKISRDNAKNTVYLQMNCLKPEDTAVYYCAADWYVYSPYDYWGQGTQVTVSS | low polyreactivity
11 | QVQLEESGGGLVQAGGSLRLSCAASGRIFSRYAMGWYRQAPGKERELVAAITQSGTSTYYADSVKGRFTISRDNAKNTVYLQMTSLKPEDTAVYYCNAYRQYRYDYWGQGTQVTVSS | low polyreactivity
12 | QVQLEESGGGLVQAGGSLRLSCAASGRIFYRYAMGWYRQAPGKERELVAAISSGGSTYYADSVKGRFTISRDNAKNTVYLQMNSLKPDDTAVYYCAATWGRGTYYLYYYWGQGTQVTVSS | high polyreactivity
13 | QVQLEESGGGLVQAGGSLRLSCAASGRLFGDNAMGWYSQAPGKERELVAAISDSGGSTYYADSVKGRFTISRDNAKNTVYLQMNSLKPEDTAVYYCAAEYIVRWYWYYYWGQGTQVTVSS | high polyreactivity
14 | QVQLEESGGGLVQAGGSLRLSCAASGRPCWLMLWDGIDRRLGKKGSWLPLTASTYYADSVKGRFTISRDNAKNTVYLQMNSLKPEDTAVYYCAADLYYGDYRTLPIADEYDYWGQGTQVTVSS | low polyreactivity
15 | QVQLEESGGGLVQAGGSLRLSCAASGRTFALYAMGWYRQAPGKERELVASISWRGGSTYYADSVKGRFTISRDNAKNTVYLQMNSLKPEDTAVYYCAADTWSYGPLNYRLEYWGQGTQVTVSS | low polyreactivity
16 | QVQLEESGGGLVQAGGSLRLSCAASGRTFAYYFMGWYRQAPGKERQLVAAISGSGGSTYYADSVKGRFTISRDNAKNTVYLQMNSLKPEDTAVYYCAAQYAYGGYDYWGQGTQVTVSS | high polyreactivity
17 | QVQLEESGGGLVQAGGSLRLSCAASGRTFDRNTMGWYRQAPGKERELVASITSSGASTYYADSVKGRFTISRDNAKNTVYLQINSLKPVDTSVYYCAARTYTGNYSNSKYYYWGQGTEVTVSS | high polyreactivity
18 | QVQLEESGGGLVQAGGSLRLSCAASGRTFGVYAMGWYRQAPGKERELVAGIRWRGGSTYYADSVKGRFTISRDNAKNTVYLQMNSLKPEDTAVYYCAADVYLVKYDYWGQGTQVTVSS | low polyreactivity
19 | QVQLEESGGGLVQAGGSLRLSCAASGRTFIKYAMGWYRQAPVNESELVAAITYSAGSTSYADSVKGRFTISRDNAKNTVYLQMNSRKPVDTAVYYCARRTRSYGYRSDYYYWGQGTQVTVSS | low polyreactivity
20 | QVQLEESGGGLVQAGGSLRLSCAASGRTFRTYTMGWYRQAPGTERELVAANSKRGSSTYYADSVKGRFTISRDNAKNTVYLQMNSLKPEDTAVYYCAARSWLSNSPYGYWGQGTQVTVSS | high polyreactivity

Row | Sequence | polyreactivity (PSR sort gate)
21 | QVQLEESGGGLVQAGGSLRLSCAASGRTFSYNAMGWYRQPPGKEREFVAAITWRGSSTYYADSVKWRFTISRDYEKNTVYLQMNSLIPDDTAVYECNARATNVIWGRYDYWGQGTQVTVSS | high polyreactivity
22 | QVQLEESGGGLVQAGGSLRLSCAASGRTFTLNAMGWYRQAPGKEREFVAAISNSGVRTYYADSVKGRFTISRDNAKNTVYLQMNSLKPEDTAVYYCARTYQVGDSIDDYWGQGTQVTVSS | low polyreactivity
23 | QVQLEESGGGLVQAGGSLRLSCAASGRTFVYNTKGWYRQAPGKERELVAAITSSGGRTSYADSVKGRFTISRDNAKNTVYLQMNSLKPEDTAVYYCAKDRYTSSTQYRRYDYWGQGTQVTVSS | high polyreactivity
24 | QVQLEESGGGLVQAGGSLRLSCAASGRTFWVYAMGWYRQAPGKERELVAAISRSGVSTYYADSVKGRFTISRDNAKNTVYLQMNSLKPEDTAVYYWAAEARVQFSYDYWGQGTQVTVSS | low polyreactivity
25 | QVQLEESGGGLVQAGGSLRLSCAASGRTFYHYAMGWYRQAPGKERELVAGITDGTITTDADSVKGRFTISRDNAKNTVYLQMNSLKPEDTAVYYCNVGYSDWWRSWAMDYWGQGTQVTVSS | high polyreactivity
26 | QVQLEESGGGLVQAGGSLRLSCAASGSIFDTYAMGWYRQAPGNERELVAAISSGGRTYYADSVKGRFTISRDNAKNTVYLQMNSLKPEDTAVYYCNARYHARYGGDYWGQGTQVTVSS | high polyreactivity
27 | QVQLEESGGGLVQAGGSLRLSCAASGSIFDVYAIGWYRQAPGKERELVAGINSAGSTYYADSVKGRFTISRDNAKNTVYLQMNSLKPEDSAVYYCAAREYILTPGYQWYTYRGYDYWGQGTQVTVSS | low polyreactivity
28 | QVQLEESGGGLVQAGGSLRLSCAASGSIFGAYTMGWYRQAPGKERELVAAISIGGSKNYADSVKGRFTISRDNAKNTVYLQMNSLKPEDTAVYYCNAEPDLEDWWWAIGLYDYWGQGTQVTVSS | high polyreactivity
29 | QVQLEESGGGLVQAGGSLRLSCAASGSIFLGYAMGWYRQAPGKERELVAAITTVGSTNYADSVKGRFTISRDNAKNTVYLQMNSVKPEDTAVYYCAAGWVGWGEKYTLDYWGQGTQVTVSS | high polyreactivity
30 | QVQLEESGGGLVQAGGSLRLSCAASGSIFQQYAMGWYRQAPGKERELVAAISYSGGTTYYADSVKGRFTISRDNAKNTVYLQMNSLKPEDTAVDYCAAYYPSGSYDYYWGQGTQVTVSS | low polyreactivity
31 | QVQLEESGGGLVQAGGSLRLSCAASGSIFRGYAMGWYRQAPGKERELVAAITWGGGSTYADSVKGRFTISRDNAKNTVYLQMNSLKPEDTAVYYCAARYVSRYYVYRGFEYWGQGTQVTVSS | high polyreactivity
32 | QVQLEESGGGLVQAGGSLRLSCAASGSIFRPNAMGWYRQAPGKERELVASINSGSGSTYYADSVKGRFTISRDNAKNTVYLQMNSLKPEDTAVYYCNAAGAYPYYSEDYYWGQGTQVTVSS | low polyreactivity
33 | QVQLEESGGGLVQAGGSLRLSCAASGSIFYDYAMGWYRQAPGKERELVAAISKSDGSTYYADSVKGRFTISRDNAKNTVYLQMNSLKPEDTAVYYCNADLIYSYPPEYDYWGQGTQVTVSS | high polyreactivity
34 | QVQLEESGGGLVQAGGSLRLSCAASGSIIRYNAMGWYRQAPGKERELVAAISASGGRTHYADSVKGRFTISRDNAKNTVYLQMNSLKPEYTAVYYCAASTYRVTSLYGYWGQGTQVTVSS | high polyreactivity
35 | QVQLEESGGGLVQAGGSLRLSCAASGSTFDNNGMGWYRQATGKERELVASITFNVGSTYYADSVKGRFTMSRDNAKNTVYLQMNSLKPEDTAVYYCGADDLNLSQALGYDFWGQGTQVTVSS | low polyreactivity
36 | QVQLEESGGGLVQAGGSLRLSCAASGSTFDRNTMGWYRQAPGKERELVAAITWSSGSTYYADSVKGRFTISRDNAKNTVYLQMNSLKPEDTAVYYCAADPIRYRSRHKYGYWGQGTQVTVSS | low polyreactivity
37 | QVQLEESGGGLVQAGGSLRLSCAASGSTFPGNALGWYRQAPGKERELVAAITSSGGSTDYADSVKGRFTISRDNAKNTVYLQMNSLKPEDTAVYYCAADGEDSLWTGYDYDYWGQGTQVTVSS | low polyreactivity
38 | QVQLEESGGGLVQAGGSLRLSCAASGSTFPGNGMGCYRPEPGKERELVAYISGGGDSTYYADSVKGRFTISRDNAKNTVYLQMNSLKPEETAVYYCAADYRQEPGYTGYYYWGHGTQVTVSS | low polyreactivity
39 | QVQLEESGGGLVQAGGSLRLSCAASGSTFPPYEMGWYRQAPGKERELVAAISGSGGSTNYADSVKGRFTISRDHAKNTVYLQMNSLKPEDNAVYRDYWGQGTQVTVSS | low polyreactivity
40 | QVQLEESGGGLVQAGGSLRLSCAASGSTFRANAMGWYRQAPGKERELVAAISSGDSTNYADSVKGRFTISRDNAKNTVYLQMNSLKPEDTAVYYCAAVYTYYWWGSYGFWGQGTQVTVSS | low polyreactivity
